# Reference: the RNAGym collection of RNA variant scans (doi:10.1073/pnas.2313332121)
# B1: TPR t1 (parent)
# chain: GACCAAUCUGCCCUCAGAGCUCGAGAACAUCUUCGGAUGCAGAGGAGGCAGGCUUCGGUGGCGCGAUAGCGCCAACGUCCUCAACCUCCAAUGCAUCCCACCACAUGAUGAUGCCUGAAGAGCCUUGGUUUUUUG
# Variants of: B1
# Experiment: polymerase ribozyme fitness, log enrichment relative to wild type (log ratio); higher = more active; in vitro selection for triplet polymerase activity
# How it was run: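 One round of in vitro selection, in triplicate, was applied to PCR-built, transcribed mutant libraries of each subunit of a heterodimeric triplet polymerase ribozyme. The steps were annealing with a biotinylated primer, partner subunit and triplets, incubation frozen at −7 °C, gel excision of extended constructs, streptavidin-bead capture and RT-PCR. Fitness is the logarithm, base 2, of genotype enrichment over wild-type enrichment from inverse-variance-weighted replicate averages of Illumina-sequenced inputs and outputs, keeping genotypes with ≥10 input reads and ≥1 read per output.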
row,Variant,polymerase ribozyme fitness (log ratio)
1,GACCAAUCUGCCCUCAGAGCUCGAGAACAUCUUCGGAUGCAGAGGAGGCAGGCUUCGGUGGCGCGAUAGCGCCAACGUCCUGAACCUCCAAUGCAUCACACCACAUGAUGAUGCCUGUAGAGCCUUGGUUUUUUG,-5.57
2,GACCAAUCUGCCCUCAGAGCUCGAGAACAUCUUCGGAUGCAGAGGAGGCAGGCUUCGGUGGCGCGAUAGCGCCAACGUCCUGAACCUCCAAUGCAUCCCACCACAUGAUUAUGCCUGAAGAGCCUUGGUUUUUUG,-3.25
3,GACCAAUCUGCCCUCAGAGCUCGAGAACAUCUUCGGAUGCAGAGGAGGCAGGCUUCGGUGGCGCGAUAGCGCCAACGUCCUCGACCUCCGAUGCAUCCCACCACAUGAUGAUGCCUGAAGAGCCUUGGUUUUUUG,-0.465
4,GACCAAUCUGCCCUCAGAGCUCGAGAACAUCUUCGGAUGCAGAGGAGGCAGGCUUCGGUGGCGCGAUAGCGCCAACGUCCUCCACCUCCAAAGCAUCCCACCACAUGAUGAUGACUGAAGAGCCUUGCUUUUUUG,-6.64
5,GACCAAUCUGCCCUCAGAGCUCGAGAACAUCUUCGGAUGCAGAGGAGGCAGGCUUCGGUGGCGCGAUAGCGCCAACGUCCUCUACCUCCAAUGCAUCCCACCACAUGAUGAUGCCUGAAAAGCCAUGGUUUUUUG,0.929
6,GACCAAUCUGCCCUCAGAGCUCGAGAACAUCUUCGGAUGCAGAGGAGGCAGGCUUCGGUGGCGCGAUAGCGCCAACGUCCUGAACCUCCAAUGCAUCCUACCACAUGAUGAUGCCUGAAGAGCCUUGGUUUUUUG,-3.61
7,GACCAAUCUGCCCUCAGAGCUCGAGAACAUCUUCGGAUGCAGAGGAGGCAGGCUUCGGUGGCGCGAUAGCGCCAACGUCCUCGACCUCAAAUGCAUCCCACCACAGGAUGAUGCCUGAAGAGCCUUGGUUUUUUG,-4.3
8,GACCAAUCUGCCCUCAGAGCUCGAGAACAUCUUCGGAUGCAGAGGAGGCAGGCUUCGGUGGCGCGAUAGCGCCAACGUCCUCUACCUCCACUGCAUCCCACCACAUGAUGAUGCCUGAAGAGCCUUGAUUUUUUG,-2.84
9,GACCAAUCUGCCCUCAGAGCUCGAGAACAUCUUCGGAUGCAGAGGAGGCAGGCUUCGGUGGCGCGAUAGCGCCAACGUCCUCCACCUCCAAUGCAUCCCACCACAUGAUUAUGCCUUAAGAGCCUUGGUUUUUUG,-5.17
10,GACCAAUCUGCCCUCAGAGCUCGAGAACAUCUUCGGAUGCAGAGGAGGCAGGCUUCGGUGGCGCGAUAGCGCCAACGUCCUGAACCUCCAAUCCAUCCCACCACAUGAUGAUGCCUGAAGAGCCUUGGGUUUUUG,-2.84
11,GACCAAUCUGCCCUCAGAGCUCGAGAACAUCUUCGGAUGCAGAGGAGGCAGGCUUCGGUGGCGCGAUAGCGCCAACGUCCUGAACCUCCAAUGCAUACCACCACAUGAUGACGCGUGAAGAGCCUUGGUUUUGUG,-6.38
12,GACCAAUCUGCCCUCAGAGCUCGAGAACAUCUUCGGAUGCAGAGGAGGCAGGCUUCGGUGGCGCGAUAGCGCCAACGUCCUUAACCUGCAAUGCAUCCCACCACAUGAUGAUGCCUGAAGAGCUUUGGUUUUUUG,0.172
13,GACCAAUCUGCCCUCAGAGCUCGAGAACAUCUUCGGAUGCAGAGGAGGCAGGCUUCGGUGGCGCGAUAGCGCCAACGUCCUCACCCUCCAAUGCAUCCCACCACAUGAUGAUGCCUGAAGAGCCUUGGUUUUUUG,-0.112
14,GACCAAUCUGCCCUCAGAGCUCGAGAACAUCUUCGGAUGCAGAGGAGGCAGGCUUCGGUGGCGCGAUAGCGCCAACGUCCUGAACCUCCAAUGCAUCCCACCACAUGACGAUGCCUGAAGAGCCUUGGUUUUUUG,-5.03
15,GACCAAUCUGCCCUCAGAGCUCGAGAACAUCUUCGGAUGCAGAGGAGGCAGGCUUCGGUGGCGCGAUAGCGCCAACGUCCUUAACCCCCAAUGCAUCCCACCACAUGAUGAUACCUGAAGAGCCUUGGUUUUUUG,-1.19
16,GACCAAUCUGCCCUCAGAGCUCGAGAACAUCUUCGGAUGCAGAGGAGGCAGGCUUCGGUGGCGCGAUAGCGCCAACGUCCUCACGCUCCAAUACAUCCCAUCACAUGAUGAUGCCUGAAGAGCCUUGGUUUUUUG,-2.22
17,GACCAAUCUGCCCUCAGAGCUCGAGAACAUCUUCGGAUGCAGAGGAGGCAGGCUUCGGUGGCGCGAUAGCGCCAACGUCCUCCACCUCCAAUGCAUCCCACCACAUUAUGAUACCUGAAGAGCCUUGGUUUUUUG,-3.74
18,GACCAAUCUGCCCUCAGAGCUCGAGAACAUCUUCGGAUGCAGAGGAGGCAGGCUUCGGUGGCGCGAUAGCGCCAACGUCCUCCACCUCCAAUGCAUCCCACCACAUGAUGAGCCCUGAAUAGCCUUGGUCUUUUG,-7.33
19,GACCAAUCUGCCCUCAGAGCUCGAGAACAUCUUCGGAUGCAGAGGAGGCAGGCUUCGGUGGCGCGAUAGCGCCAACGUCCUUAACCUCCAUUGCAUCCCUCCACAUGAUGAUGCCUGAAGAGCCUUGGUUUUUUG,-3.25
20,GACCAAUCUGCCCUCAGAGCUCGAGAACAUCUUCGGAUGCAGAGGAGGCAGGCUUCGGUGGCGCGAUAGCGCCAACGUCCUUAACCUCUAAUGCAUCCCACCACAUGAUGAUUCCUGAAAAGCCUUGAUUUUUUG,-5.47
21,GACCAAUCUGCCCUCAGAGCUCGAGAACAUCUUCGGAUGCAGAGGAGGCAGGCUUCGGUGGCGCGAUAGCGCCAACGUCCUCCACCUCCAAUGCAUCCCACCACAUGAUGAUGACUGAAGAGGGUUGGUUUUUUG,-0.19

row,Variant,polymerase ribozyme fitness (log ratio)
1,GACCAAUCUGCCCUCAGAGCUCGAGAACAUCUUCGGAUGCAGAGGAGGCAGGCUUCGGUGGCGCGAUAGCGCCAACGUCCUCGACCUCCAAUGCAUUCCACCACAUGAUGAUGCAUGAAGAGCCUUGGUUUUUUC,-1.7
2,GACCAAUCUGCCCUCAGAGCUCGAGAACAUCUUCGGAUGCAGAGGAGGCAGGCUUCGGUGGCGCGAUAGCGCCAACGUCCUGAACCUCCAAUGCAUCCCACCACAUGAUGAUGCCUCAAGAGCCUUGGUUUUUUG,-3.58
3,GACCAAUCUGCCCUCAGAGCUCGAGAACAUCUUCGGAUGCAGAGGAGGCAGGCUUCGGUGGCGCGAUAGCGCCAACGUCCUCGACCUCAAAUGCAUCCCACCACAUGAUGAUGCCUGAAGAGCCUUGGUUUUUUG,-3.89
4,GACCAAUCUGCCCUCAGAGCUCGAGAACAUCUUCGGAUGCAGAGGAGGCAGGCUUCGGUGGCGCGAUAGCGCCAACGUCCUUAACCUCCAAUGCAACCCAACACAUGAUGAUGCCUGAAGAGCCUUAGUUUUUUG,-4.42
5,GACCAAUCUGCCCUCAGAGCUCGAGAACAUCUUCGGAUGCAGAGGAGGCAGGCUUCGGUGGCGCGAUAGCGCCAACGUCCUCGACCUCCAAUACAUCCCACCACAUGAUGAUGCCUGAAUAGCCUUGGUUUUUUG,-1.68
6,GACCAAUCUGCCCUCAGAGCUCGAGAACAUCUUCGGAUGCAGAGGAGGCAGGCUUCGGUGGCGCGAUAGCGCCAACGUCCUCCACCUCCAAUCCAUCCCACCACAUGAUGAUGCCUGAAGAGCCUUGGUUUUUUG,-0.701
7,GACCAAUCUGCCCUCAGAGCUCGAGAACAUCUUCGGAUGCAGAGGAGGCAGGCUUCGGUGGCGCGAUAGCGCCAACGUCCUGAACCUCCAAUGCAUCCCACCACAUGAUGAUGCCUGAAGAGCCUUGAUUUUUUG,-2.22
8,GACCAAUCUGCCCUCAGAGCUCGAGAACAUCUUCGGAUGCAGAGGAGGCAGGCUUCGGUGGCGCGAUAGCGCCAACGUCCUCCACCUCCAAUGCAUCCCACCACAUGAUGAUGCCUGAAGGGCCUUGGUUUUUUG,1.63
9,GACCAAUCUGCCCUCAGAGCUCGAGAACAUCUUCGGAUGCAGAGGAGGCAGGCUUCGGUGGCGCGAUAGCGCCAACGUCCUCUACCUCCAAUGCAUCCCACCACAUGAUGAUGCCUGAAUAGCCUUGGUCUUUUG,-0.376
10,GACCAAUCUGCCCUCAGAGCUCGAGAACAUCUUCGGAUGCAGAGGAGGCAGGCUUCGGUGGCGCGAUAGCGCCAACGUCCUCUACCUCCAAUGCAUCUCACCACAUGAUGAUGCCUGAAGAGCCUUGGUCUUUUG,-0.673
11,GACCAAUCUGCCCUCAGAGCUCGAGAACAUCUUCGGAUGCAGAGGAGGCAGGCUUCGGUGGCGCGAUAGCGCCAACGUCCUCCACCUCCAAUGCAUCCCACCACAUGAUGAUUCCUGAAGAGCCUUGGUUUUUUG,-3.09
12,GACCAAUCUGCCCUCAGAGCUCGAGAACAUCUUCGGAUGCAGAGGAGGCAGGCUUCGGUGGCGCGAUAGCGCCAACGUCCUCUACCUCCAAUGCAUCCCACCACAUGAUGAUGCUUGAAGAGGCUUGGUUUUUUU,-1.98
13,GACCAAUCUGCCCUCAGAGCUCGAGAACAUCUUCGGAUGCAGAGGAGGCAGGCUUCGGUGGCGCGAUAGCGCCAACGUCCUUAACCUCCAAUGCAGCCCACCACAUGAUGAUGCCUGAAGAACCUUGGUUUUUUG,-1.25
14,GACCAAUCUGCCCUCAGAGCUCGAGAACAUCUUCGGAUGCAGAGGAGGCAGGCUUCGGUGGCGCGAUAGCGCCAACGUCCUGAACCUCCAAUGCAUCCCACCACAUGAUGAUGCCUGAAGAGGCUCGCUUUUUUG,-2.13
15,GACCAAUCUGCCCUCAGAGCUCGAGAACAUCUUCGGAUGCAGAGGAGGCAGGCUUCGGUGGCGCGAUAGCGCCAACGUCCUCUACCUCCAAUGCAUCCCACCACAUGAUGAUGCCUGAAGAGCCAUGGUUUUUUG,-0.797
16,GACCAAUCUGCCCUCAGAGCUCGAGAACAUCUUCGGAUGCAGAGGAGGCAGGCUUCGGUGGCGCGAUAGCGCCAACGUCCUCCACCUUCAAUGCAUCCCACCACAUGAUGAUGCCUGAAGAGCCUUGGUUUUUUG,-0.561
17,GACCAAUCUGCCCUCAGAGCUCGAGAACAUCUUCGGAUGCAGAGGAGGCAGGCUUCGGUGGCGCGAUAGCGCCAACGUCCUCUACCUCCAAUGCAUCCCACCACAUAAUGAUGCCUGAAGAGCCUUGGUUUUUUG,-5.83
18,GACCAAUCUGCCCUCAGAGCUCGAGAACAUCUUCGGAUGCAGAGGAGGCAGGCUUCGGUGGCGCGAUAGCGCCAACGUCCUUAACCUCAAAUGCAUCCCACCACAUGAUGAUGCCUGAAGAGCCUUGGUUUUUUG,-1.21
19,GACCAAUCUGCCCUCAGAGCUCGAGAACAUCUUCGGAUGCAGAGGAGGCAGGCUUCGGUGGCGCGAUAGCGCCAACGUCCUCCACCUCCAAUGCAUCCCAGCACAUGAAGAUGCCUGAAAAGCCUUGGUUUUUUG,-7.06
20,GACCAAUCUGCCCUCAGAGCUCGAGAACAUCUUCGGAUGCAGAGGAGGCAGGCUUCGGUGGCGCGAUAGCGCCAACGUCCUCGACAUCCAAUGCAUCCCACCACAUGAUGAUACCUGAAGAGCCUUGGUUUUUUG,-2.01
21,GACCAAUCUGCCCUCAGAGCUCGAGAACAUCUUCGGAUGCAGAGGAGGCAGGCUUCGGUGGCGCGAUAGCGCCAACGUCCUUAACCUCCAAUGCAUCCCACCACAUGAUGAUGCCUUAAGAGCCUUGGUUUUUUG,-2.7
